This is an account of results in patent US20170165365A1 (SYMPHOGEN A S, published 2017).

Assay [1] has as its target T1, human EGFR antigen (Sino Biologicals) (human, UniProt P00533 25-645).
T1 construct: Bought soluble antigen; also called human antigen
As to the kind of experiment: ELISA, coated hu EGFR. As for the experimental part: (§1) Antibody-antigen binding was measured by ELISA with coated antigens. Human antigens were obtained from Sino Biologicals. All other antigens were produced in-house by transient expression in CHO or HEK293 cells. Chimeric and humanized antibodies, as well as an isotype control antibody, were incubated with the coated antigens at different concentrations. After wash, bound antibodies were detected by HRP-(horse radish peroxidase)-conjugated secondary antibodies.
(In general: ELISA stands for enzyme-linked immunosorbent assay.)

In the next assay the target is T2, mouse EGFR antigen (mouse, UniProt Q01279 25-647, limits assumed).
T2 construct: In-house antigen coated for ELISA; also called mouse antigen; murine EGFR
The experiment in a line: ELISA, coated mu EGFR. As for the experimental part:
as §1

The target in another assay is T3, cynomolgus EGFR antigen (cynomolgus monkey, UniProt A0A2K5WK39 25-645).
T3 construct: In-house antigen; also called cynomolgus antigen
The experiment in a line: ELISA, coated cy EGFR. As to the method: as §1

For another assay, the target named is T4, mouse HER3 antigen (mouse, UniProt Q61526 20-641, limits assumed).
T4 construct: In-house antigen coated for ELISA; also called mouse antigen; murine HER3
T4 sequence (Q61526 20-641 limits assumed): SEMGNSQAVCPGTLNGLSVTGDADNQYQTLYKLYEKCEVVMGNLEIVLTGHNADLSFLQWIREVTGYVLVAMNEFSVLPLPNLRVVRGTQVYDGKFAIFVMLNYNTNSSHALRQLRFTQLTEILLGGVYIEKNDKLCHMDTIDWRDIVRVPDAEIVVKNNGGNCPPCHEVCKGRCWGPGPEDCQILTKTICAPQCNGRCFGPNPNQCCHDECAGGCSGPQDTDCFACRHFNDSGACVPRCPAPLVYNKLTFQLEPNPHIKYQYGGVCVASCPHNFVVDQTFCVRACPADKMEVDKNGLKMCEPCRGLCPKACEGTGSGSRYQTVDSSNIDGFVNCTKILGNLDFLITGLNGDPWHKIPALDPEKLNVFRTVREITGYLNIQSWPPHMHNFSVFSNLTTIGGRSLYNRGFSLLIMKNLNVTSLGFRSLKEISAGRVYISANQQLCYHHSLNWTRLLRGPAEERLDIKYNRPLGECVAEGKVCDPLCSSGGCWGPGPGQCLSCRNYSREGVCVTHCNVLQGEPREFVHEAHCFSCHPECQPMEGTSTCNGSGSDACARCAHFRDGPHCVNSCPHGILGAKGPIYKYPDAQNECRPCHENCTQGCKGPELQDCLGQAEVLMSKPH
The experiment in a line: ELISA, coated mu HER3. As for the experimental part:
as §1

The next assay addresses T5, mouse HER2 antigen (mouse, UniProt P70424 23-653, limits assumed).
T5 construct: In-house antigen coated for ELISA; also called mouse antigen; murine HER2
As to the kind of experiment: ELISA, coated mu HER2. As for the experimental part: as §1

The target in assay [2] is T6, cynomolgus HER3 antigen (cynomolgus monkey, UniProt G7PIG5 20-643).
T6 construct: In-house antigen; also called cynomolgus antigen
T6 sequence (G7PIG5 entry or part of it): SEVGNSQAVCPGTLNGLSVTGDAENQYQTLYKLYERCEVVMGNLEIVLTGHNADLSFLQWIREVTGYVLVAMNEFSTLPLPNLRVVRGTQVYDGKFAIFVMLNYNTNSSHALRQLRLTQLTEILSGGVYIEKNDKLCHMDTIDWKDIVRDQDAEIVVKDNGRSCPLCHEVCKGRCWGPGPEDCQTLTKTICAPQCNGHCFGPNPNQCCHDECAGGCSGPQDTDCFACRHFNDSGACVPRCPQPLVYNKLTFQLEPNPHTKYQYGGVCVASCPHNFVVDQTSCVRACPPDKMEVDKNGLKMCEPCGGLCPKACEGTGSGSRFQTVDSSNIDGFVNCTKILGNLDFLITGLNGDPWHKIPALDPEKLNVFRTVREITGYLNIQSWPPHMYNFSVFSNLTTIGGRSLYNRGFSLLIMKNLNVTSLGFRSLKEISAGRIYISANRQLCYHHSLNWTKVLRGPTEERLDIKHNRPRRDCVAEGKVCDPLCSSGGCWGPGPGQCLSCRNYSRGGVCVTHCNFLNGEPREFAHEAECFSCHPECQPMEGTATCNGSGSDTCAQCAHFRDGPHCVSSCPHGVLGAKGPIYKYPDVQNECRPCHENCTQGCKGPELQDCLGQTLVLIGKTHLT
The experiment in a line: ELISA, coated cy HER3. As to the method: as §1

The target of the next assay is T7, human HER4 antigen (human, UniProt Q15303 26-649, limits assumed).
T7 construct: Antigen coated for ELISA
T7 sequence (looked up): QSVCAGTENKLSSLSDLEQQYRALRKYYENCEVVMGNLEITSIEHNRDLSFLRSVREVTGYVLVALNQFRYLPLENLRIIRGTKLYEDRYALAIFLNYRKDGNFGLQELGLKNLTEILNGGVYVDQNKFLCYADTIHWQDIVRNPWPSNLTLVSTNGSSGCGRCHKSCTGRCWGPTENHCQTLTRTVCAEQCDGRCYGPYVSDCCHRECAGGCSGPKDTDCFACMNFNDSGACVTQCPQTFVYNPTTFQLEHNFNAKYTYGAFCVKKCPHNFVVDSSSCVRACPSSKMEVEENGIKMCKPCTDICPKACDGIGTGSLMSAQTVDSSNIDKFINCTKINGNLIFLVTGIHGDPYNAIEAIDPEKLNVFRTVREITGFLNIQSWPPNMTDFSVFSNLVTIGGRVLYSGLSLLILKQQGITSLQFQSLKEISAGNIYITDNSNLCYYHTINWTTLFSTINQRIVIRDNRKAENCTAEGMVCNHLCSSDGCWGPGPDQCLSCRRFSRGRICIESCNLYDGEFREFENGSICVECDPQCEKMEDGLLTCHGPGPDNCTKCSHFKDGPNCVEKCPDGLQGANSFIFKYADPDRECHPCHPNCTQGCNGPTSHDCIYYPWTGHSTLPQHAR
The experiment in a line: ELISA, coated hu HER4. As for the experimental part:
as §1

The target in assay [3] is cynomolgus HER2 antigen (cynomolgus monkey). The experiment in a line: SPR (ProteOn XPR36), IgG captured by anti-human Fc, soluble monovalent antigen, 1:1 fit.
A further assay addresses T8, murine HER4 antigen (mouse, UniProt Q61527 26-652, limits assumed).
T8 construct: In-house antigen coated for ELISA; also called mouse HER4
T8 sequence (looked up): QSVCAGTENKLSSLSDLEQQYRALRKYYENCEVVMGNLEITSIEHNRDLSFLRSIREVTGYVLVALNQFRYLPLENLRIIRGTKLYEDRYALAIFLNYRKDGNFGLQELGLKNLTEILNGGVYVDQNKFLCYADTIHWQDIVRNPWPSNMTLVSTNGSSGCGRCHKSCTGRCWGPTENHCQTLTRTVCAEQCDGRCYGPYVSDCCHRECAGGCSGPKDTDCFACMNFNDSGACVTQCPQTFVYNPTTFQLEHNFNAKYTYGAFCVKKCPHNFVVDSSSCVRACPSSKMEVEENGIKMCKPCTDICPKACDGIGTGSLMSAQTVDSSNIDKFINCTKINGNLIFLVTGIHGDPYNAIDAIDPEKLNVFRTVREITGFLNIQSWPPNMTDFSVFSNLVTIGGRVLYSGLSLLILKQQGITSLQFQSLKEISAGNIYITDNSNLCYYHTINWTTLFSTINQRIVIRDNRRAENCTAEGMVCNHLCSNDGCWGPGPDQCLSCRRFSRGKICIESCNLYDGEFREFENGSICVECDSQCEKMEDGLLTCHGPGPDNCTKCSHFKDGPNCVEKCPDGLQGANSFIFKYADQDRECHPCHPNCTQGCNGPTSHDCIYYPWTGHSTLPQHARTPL
The experiment in a line: ELISA, coated mu HER4. As to the method:
as §1

Assay [4] addresses T9, human HER3 antigen (Sino Biologicals) (human, UniProt P21860 20-643).
T9 construct: Bought soluble antigen; also called human antigen
As to the kind of experiment: ELISA, coated hu HER3. As to the method:
as §1

For assay [5], the target named is T9, human HER3 antigen (Sino Biologicals). As to the kind of experiment: SPR (ProteOn XPR36), IgG captured by anti-human Fc, soluble monovalent antigen, 1:1 fit. As for the experimental part: (§2) Kinetic binding analysis of the purified humanized variants was performed on a ProteOn™ XPR36 biosensor (BioRad, USA) employing an IgG capture assay as described by Canziani et al. (Anal. Biochem. (2004) 325:301-307) that allows for measurement of antibody affinities of whole IgG molecules against soluble antigen under monovalent conditions. Briefly, approximately 5000 resonance units (RU) of a monoclonal mouse anti-human IgG Fc antibody (GE Healthcare, Denmark) was conjugated to a GLC chip surface (BioRad, USA) according to the manufacturer's instructions, followed by capture of individual antibodies of the invention or a negative control on the anti-Fc sensor surface. […] Next, 250 μl monovalent antigen (Sino Biologicals) was injected at a flow rate of 50 μl/min in serial threefold dilutions from 100 nM stock to generate response curves. The chip surface was regenerated between cycles by stripping the captured antibody/antigen complexes off the surface with a 10-second injection of 3 M MgCl₂ (GE Healthcare, Denmark) repeated three times. Finally, binding responses were fitted to a Langmuir 1:1 binding model for calculation of the on-rate (kon or ka), off-rate (koff or kd) and affinity (KD) constants using double referencing.

The target of assay [6] is T6, cynomolgus HER3 antigen. Described as above. As to the method:
as §2

The target of assay [7] is T10, human HER2 antigen (Sino Biologicals) (human, UniProt P04626 23-652).
T10 construct: Bought soluble antigen; also called human antigen
The experiment in a line: ELISA, coated hu HER2. As for the experimental part: as §1

Where only a bound is given, the exact number is not on record here.

T5 sequence (P70424 23-653 limits assumed): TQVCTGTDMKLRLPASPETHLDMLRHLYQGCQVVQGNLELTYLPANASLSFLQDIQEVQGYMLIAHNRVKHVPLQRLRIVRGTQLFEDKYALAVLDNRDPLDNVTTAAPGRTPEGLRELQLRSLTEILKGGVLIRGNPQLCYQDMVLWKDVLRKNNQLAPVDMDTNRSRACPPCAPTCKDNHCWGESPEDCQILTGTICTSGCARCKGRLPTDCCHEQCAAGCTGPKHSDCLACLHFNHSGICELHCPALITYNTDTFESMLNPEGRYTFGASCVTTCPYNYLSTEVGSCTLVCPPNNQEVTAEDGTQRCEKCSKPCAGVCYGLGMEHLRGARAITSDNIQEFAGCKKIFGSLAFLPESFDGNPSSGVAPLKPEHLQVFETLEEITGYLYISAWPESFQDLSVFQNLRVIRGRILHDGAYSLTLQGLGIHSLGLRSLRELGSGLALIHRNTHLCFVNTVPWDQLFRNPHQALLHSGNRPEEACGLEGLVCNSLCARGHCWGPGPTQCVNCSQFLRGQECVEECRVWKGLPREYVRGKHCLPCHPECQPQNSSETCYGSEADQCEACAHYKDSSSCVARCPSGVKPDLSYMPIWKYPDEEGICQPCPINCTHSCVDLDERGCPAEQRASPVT

B1: humanized anti-HER2 antibody 11145 (antibody, V domains shown)
VH: EVQLVESGGGLVKPGGSLRLSCAASGFTFSSYGMSWVRQAPGKGLEWVATISGGGSYTYYPDSVKGRFTISRDIAKSSLYLQMNSLRAEDTAVYYCARKGNYGNYGKLAYWGQGTTVTVSS
VL: DIQMTQSPSSLSASVGDRVTITCRASENIYSNLAWYQQKPGKAPKLLIYAATNLATGVPSRFSGSGSGTDYTLTISSLQPEDFASYYCQHFWGTPWTFGQGTKLEIK
Take B1: the binding result (in [1]; in the assay with mouse EGFR antigen; with cynomolgus EGFR antigen; in the assay with mouse HER3 antigen; in the assay with mouse HER2 antigen; with cynomolgus HER3 antigen [2]) was “no binding (tested: 40 nM)” each time. The binding result (with human HER4 antigen; with murine HER4 antigen; in assay [4]) was “no binding (tested: 40 nM)” each time. Also, the Kd in [3] was found to be 12000 pM. The koff in [3] turned out to be 0.00063 s⁻¹. The same molecule registered a kon in assay [3] of 53000 M⁻¹ s⁻¹.

B2: humanized anti-HER2 antibody 10704 (antibody, V domains shown)
VH: QVQLVQSGAEVKKPGASVKVSCKASGYTFTSHWMHWVRQAPGQGLEWMGNINPSSGGTNYNEKFKSRVTLTVDKSTSTAYMELSSLRSEDTAVYYCARAYYDFSWFVYWGQGTLVTVSS
VL: DIQMTQSPSSLSASVGDRVTITCRSSQDISNYLNWYQQKPGKAVKLLMYISRLHSGVPSRFSGSGSGTDYTFTISSLQPEDIATYYCQQGNTLPLTFGGGTKVEIK
Turning to B2, the binding result (in assay [1]; in the assay with mouse EGFR antigen; with cynomolgus EGFR antigen; with mouse HER3 antigen; with mouse HER2 antigen; with cynomolgus HER3 antigen [2]) was “no binding (tested: 40 nM)” throughout. The binding result (with human HER4 antigen; with murine HER4 antigen; in assay [4]) was “no binding (tested: 40 nM)” in each case.

B3: chimeric anti-HER2 antibody 4384 (antibody, V domains shown)
VH: QVQLQQPGTELVKPGASVKLSCKASGYTFTSHWMHWVKQRPGQGLEWIGNINPSNGGTNYNEKFKSRATLTVDKASSTAYMQLSSLTSEDSAVYYCARAYYDFSWFVYWGQGTLVTVS
VL: DIQMTQTSSSLSASLGDRVTISCRSSQDISNYLNWYQQKPDGTVKLLMYISRLHSGVPSRFSGSGSGTEYSLTISNLEQEDIATYFCQQGNTLPLTFGAGTKLELKR
notes: light chain entry is full length
Consider B3, for which the binding result (in [1]; in the assay with mouse EGFR antigen; with cynomolgus EGFR antigen; with mouse HER3 antigen; in the assay with mouse HER2 antigen; in the assay with cynomolgus HER3 antigen [2]) was “no binding (tested: 40 nM)” each time. Also, the binding result (with human HER4 antigen; with murine HER4 antigen; in assay [4]) was “no binding (tested: 40 nM)” in each case. Further, the dissociation constant (Kd) in [3] was determined as 2900 pM. For the same molecule, the off-rate constant (koff) in assay [3] came to 0.0005 s⁻¹. Moreover, the kon in [3] stood at 180000 M⁻¹ s⁻¹.

B4: humanized anti-HER3 antibody 11006 (antibody, V domains shown)
VH: QVQLQESGPGLVKPSQTLSLTCTVSGYSITSAYYWNWIRQHPGKGVEWMGYIGYSGRNTYNPSLKNRVTISRDTSKNQFSLKLSSVTAADTAVYYCSREGDYGYSDYWGQGTLVTVSS
VL: DIQMTQSPSSLSASVGDRVTVTCRASQDTNNYLNWYQQKPGKAVKLLIYYTSRLQSGVPSRFSGSGSGTDFTLTISSLQPEDFATYFCQQSETLPWTFGQGTKVEIK
For B4, the binding result (in [1]; with mouse EGFR antigen; with cynomolgus EGFR antigen; in the assay with mouse HER3 antigen; with mouse HER2 antigen; with human HER4 antigen) was “no binding (tested: 40 nM)” in each case. Besides, the binding result (in assay [7]; with murine HER4 antigen) was “no binding (tested: 40 nM)” throughout. Also, the off-rate (koff) in assay [5] is less than 2e-06 s⁻¹; in the assay with cynomolgus HER3 antigen [6], 8.7e-05 s⁻¹. Also, the figures for the kon (in assay [5]; in the assay with cynomolgus HER3 antigen [6]) were 740000 M⁻¹ s⁻¹ and 1.5e+06 M⁻¹ s⁻¹, respectively. In the assay with cynomolgus HER3 antigen [6], this molecule displayed a Kd of 59 pM.

B5: humanized anti-HER3 antibody 11052 (antibody, V domains shown)
VH: QVQLQESGPGLVKPSQTLSLTCTVSGYSITSAYYWNWIRQFPGKGVEWMGYIGYSGRNTYNPSLKNRVTISRDTSKNQFSLKLSSVTAADTAVYYCSREGDYGYSDYWGQGTLVTVSS
VL: DIQMTQSPSSLSASVGDRVTVTCRASQDINNYLNWYQQKPGKAVKLLIYYTSRLQSGVPSRFSGSGSGTDYTLTISSLQPEDFATYFCQQSETLPWTFGQGTKLEIK
As to B5, the binding result (in [1]; with mouse EGFR antigen; in the assay with cynomolgus EGFR antigen; with mouse HER3 antigen; with mouse HER2 antigen; with human HER4 antigen) was “no binding (tested: 40 nM)” in each case. For the same molecule, the binding result (in assay [7]; with murine HER4 antigen) was “no binding (tested: 40 nM)” throughout. The Kd amounted to 180 pM in [5] and 190 pM with cynomolgus HER3 antigen [6]. Also, the koff in assay [5] was 0.00016 s⁻¹; with cynomolgus HER3 antigen [6] it was 0.00026 s⁻¹. Also, the values for the kon (in [5]; with cynomolgus HER3 antigen [6]) were 870000 M⁻¹ s⁻¹ and 1.3e+06 M⁻¹ s⁻¹, respectively.

Broadly, the Kd is a measure of binding affinity in units of concentration. One may read the koff as a measure of how fast the partners let go of each other. The term kon denotes the rate constant with which the complex forms.
